# Test results reported in patent US20080138280A1, “Composition and Methods For Inhibiting Cell Survival” (The Cleveland Clinic Foundation, priority 2003, published 2008).
# B1: Apo2L/TRAIL: tumor necrosis factor-related apoptosis-inducing ligand; trimeric recombinant human Apo2L/TRAIL (Genentech) (protein, UniProt P50591 1-281, looked up)
# Tumor necrosis factor ligand …: MAMMEVQGGPSLGQTCVLIVIFTVLLQSLCVAVTYVYFTNELKQMQDKYSKSGIACFLKEDDSYWDPNDEESMNSPCWQVKWQLRQLVRKMILRTSEETISTVQEKQQNISPLVRERGPQRVAAHITGTRGRSNTLSSPNSKNEKALGRKINSWESSRSGHSFLSNLHLRNGELVIHEKGFYYIYSQTYFRFQEEIKENTKNDKQMVQYIYKYTSYPDPILLMKSARNSCWSKDAEYGLYSIYQGGIFELKENDRIFVSVTNEHLIDMDHEASFFGAFLVG
# Assays:
# [1] = system: NF-κB signaling; experiment: Inhibition of NF-κB signaling by NO donors; assay type: cell-based; conditions: summary statement
# Text: SNAP, SNP (nitroprusside) and NOC-18 inhibit NF-κB signaling.
# [2] = system: NF-κB DNA binding activity; experiment: Electrophoretic mobility shift assay (EMSA) of NF-κB DNA binding activity, A375 cells; assay type: cell-based, human; conditions: NO donor 100 μM pre-treatment 16 h, Apo2L/TRAIL 100 ng/ml 1 h
# Protocol: Electrophoretic mobility shift assay (EMSA). These methods apply generally to FIGS. 5, 9-10 which employ EMSA analysis. In FIG. 5, A375 cells were treated with NO donors (NO-Cbl, NOC-18, SNAP, 100 μM, 16 h), or with Apo2L/TRAIL (100 ng/ml) or TNF-α (20 ng/ml) for 1 h, or with the combination of NO donors (16 h) followed by Apo2L/TRAIL or TNF-α (1 h). Plates were washed twice with ice-cold PBS. Cells were resuspended in cold 1× lysis buffer (20 mM HEPES, 20 mM NaF, 1 mM Na3VO4, 1 mM EDTA, 1 mM DTT, 100 mM NaCl, 10% glycerol and protease inhibitors) and incubated on ice for 30 min followed by centrifugation at 4° C. at 10,000 rpm for 10 min. Supernatants were transferred to fresh tubes and protein concentrations were assessed using the Bradford method (Bio-RAD protein assay, BioRad, Hercules, Calif.). The NF-κB consensus binding sequence (5′[…] 3′) from the IFN-β gene promoter was end-labeled with γ^32P dATP ([…]) using T4 polynucleotide kinase. DNA binding reactions were performed in 20 μl volume containing 10 μg protein, 20 mM HEPES, 10 mM KCl, 0.1% NP-40, 0.5 mM DIT and 10% glycerol. The binding reaction was performed for 20 min at 25° C. Complexes were separated from the free probe on 6% non-denaturing polyacrylamide gels in 0.5×TBE buffer at 200 V for 2 h. Gels were dried and exposed to film.
# Inhibition of NF-κB survival signaling by NO-Cbl. Because NF-κB is an important cell survival regulator, we examined the effects of NO-Cbl on NF-κB DNA binding activity. The NF-κB binding sequence from the IFN-β gene promoter was used as a probe to assess DNA binding activity. A375 cells were treated with TNF-α (20 ng/ml), Apo2L/TRAIL (100 ng/ml) or NO-Cbl (100 μM). FIG. 5, illustrates an Electrophoretic Mobility Shift Assay (EMSA) of NF-κB DNA binding activity. Pre-treatment of A375 cells with NO-Cbl inhibited the NF-κB DNA binding activity induced by Apo2L/TRAIL and TNF-α. […] NF-κB-luc transfected A375 cells were pre-treated with NO-Cbl followed by Apo2L/TRAIL or TNF-α. […] Cell lysates were analyzed for NF-κB-luc reporter activity. […]
# [3] = system: phospho-IκBα in A375 cells; experiment: Western blot analysis of IκBα phosphorylation; assay type: cell-based, human; conditions: pre-treatment 100 μM, Apo2L/TRAIL 100 ng/ml
# Protocol: Gel Electrophoresis and Immunoblot analyses. Please see FIG. 4. Whole cell lysates were prepared in 1× lysis buffer (50 mM Tris-Cl, pH 8.0, 1% Triton×100, 10% glycerol, 1 mM EDTA, 250 mM NaCl, 1 mM DTT, 1 mM PMSF, 10 μg/ml aprotinin, 10 μg/ml leupeptin, and 10 μg/ml pepstatin) for subsequent immunoblotting studies. The SDS-PAGE was conducted by using the Laemmli buffer system and 12% polyacrylamide gels. Proteins were transferred onto PVDF membranes by the semidry method (Trans Blot SD, BioRad, Hercules, Calif.). Binding of the primary and secondary antibodies was performed according to standard protocols. Membranes were immunoblotted with pAb to caspase-3, caspase-8, XIAP (BD-Pharmingen, San Diego, Calif.), PARP (BioMOL, Plymouth Meeting, Pa.), cIAP-1, FLIP, pIκBα and IκBα (Cell Signaling, Beverly, Mass.) followed by incubation with HRP conjugated secondary antibodies (Pierce, Rockford, Ill.). Immunoreactive bands were visualized by using enhanced chemiluminescence (Perkin Elmer, Boston, Mass.). Equal protein loading was confirmed by reprobing with monoclonal anti-actin antibody (Sigma Chemicals Co, St. Louis, Mo.). All immunoblots in this study were repeated 3 times with reproducible results.
# NO-Cbl treatment affected the phosphorylation state of IκBα, the prototypic inhibitor of NF-κB. Western blot analysis was performed to assess levels of phospho-IκBα and IκBα. FIG. 6 is a Western blot analysis of IκB levels and IκBα phosphorylation. IκBα and phospho-IκBα protein levels were determined in A375 whole cell lysates. […] NO-Cbl, NOC-18, and SNAP pre-treatment all inhibited Apo2L/TRAIL-induced IκBα phosphorylation.
# [4] = system: normal fibroblasts; experiment: Sulforhodamine B cell growth assay, normal cells; assay type: cell-based, human
# Protocol: (§1) Cell Culture treatments. Cells were maintained in RPMI or DMEM (Mediatech, Herndon, Va.) containing 5% fetal bovine serum (Hyclone, Logan, Utah) and 1% Antibiotic-Antimycotic (GEBCO, Invitrogen Carlsbad, Calif.) as recommended per the American Type Culture Collection media protocol for each cell line. Cells were maintained in 5% CO2 at 37° C. in a humidified tissue culture incubator. Primary non-tumorigenic […] cell lines (DMN-1 and CMN-1), and human foreskin fibroblasts (HFF; CCF, Cleveland, Ohio) were cultured in DMEM-F12 medium supplemented with 10% FBS. Cells were confirmed as mycoplasma free.
# (§2) Sulforhodamine B Cell Growth Assay. Cells were harvested with 0.5% trypsin/0.53 mM EDTA, washed with PBS and resuspended in media containing 10% FBS. Cells were plated in 96-well plates in 0.2-ml aliquots. Cells were allowed to adhere to the plate for 4 h and then NO-Cbl was added in different concentrations to the assay plate. A minimum of four were performed for each treatment. After 16 h, various chemotherapeutic agents including cytokines were added at different concentrations. Growth was monitored by the sulforhodamine B (SRB; Sigma Chemical, St. Louis, Mo.) colorimetric assay. After 36 h, the medium was removed, and the cells were fixed with 10% trichloroacetic acid and stained with SRB. Bound dye was eluted from the cells with 10 mM Tris-HCl (pH 10.5) and absorbance was measured at 570 nm using a Lab systems Multiskan RC 96-well plate reader (Lab Systems Multiscan RC, Thermo Lab Systems, Franklin, Mass.). To quantify the growth of the cells, the experimental absorbance values (Aexp) were compared with initial absorbance readings representing the starting cell numbers (Aini). To determine the starting cell number, an additional 96-well plate was seeded with cells and fixed at the beginning of the experiment. After 5 days growth, the untreated control cells and drug treated cells were fixed and stained with SRB. The absorbances derived from the initial plate and from the untreated cells at the end of the growth period (Afin) were defined as 0% and 100% growth, respectively. The percentage control growth (100%×[Aexp−Aini]/[Afin−Aini]) is expressed as a percentage of untreated controls.
# (§3) Anti-tumor effects of NO-Cbl, Apo2L/TRAIL, and the combination iii vitro. NO-Cbl enhances the anti-cellular effects of Apo2L/TRAIL against malignant Apo2L/TRAIL-resistant cell lines. First the antiproliferative effects of three melanoma lines A375, WM9, and WM3211 (previously reported to be resistant to Apo2L/TRAIL) were measured. Although Apo2L/TRAIL was used as the chemotherapeutic agents, a wide range of anti-cancer drugs and techniques would be enhanced by the NO based cobalamin compounds due to their effective inhibition of the cell survival mechanism. Such other chemotherapeutic agents are tested in the following examples. […] The SRB antiproliferative assay, used by the National Cancer Institute (NCI) to evaluate new chemotherapeutic agents was used herein. Median effect analysis was used to analyze drug interactions between NO-Cbl and Apo2L/TRAIL. Cells were pre-treated with NO-Cbl for 16 h followed by Apo2L/TRAIL for 24 h.
# (§4) The effects of nitrosylcobalamin (NO-Cbl), Apo2L/TRAIL, and the combination on the proliferation of melanoma cell lines A375, WM9, and WM3211 and normal cell lines CMN1, DMN1, and fibroblasts were observed. Cells were treated with NO-Cbl, Apo2L/TRAIL, or pre-treated with NO-Cbl followed by Apo2L/TRAIL for three days, and growth was measured by the colorimetric sulforhodamine B assay. Data points were generated to represent the mean of four replicates±standard error of the mean (SEM). Synergy between NO-Cbl and Apo2L/TRAIL was determined by median effect analysis, (combination index >1 indicates antagonism, =1 indicates additivity, and <1 indicates synergy). The combination index is represented in FIG. 1 and as the combination index observed at the specified concentrations. […]
# [5] = system: DMN1 (normal melanocytes); experiment: Sulforhodamine B cell growth assay, normal cells; assay type: cell-based, human
# Protocol: as §1, §2, §3, §4
# [6] = system: CMN1 (normal melanocytes); experiment: Sulforhodamine B cell growth assay, normal cells; assay type: cell-based, human
# Protocol: as §1, §2, §3, §4
# [7] = system: A375 cells; experiment: TUNEL apoptosis assay; assay type: cell-based, human; conditions: single agent, 36 h; NO-Cbl 100 μM or Apo2L/TRAIL 100 ng/ml
# Protocol: TUNEL assay. Please see FIG. 3. A375 cells were cultured for 36 h and exposed to various treatments (control, NO-Cbl, Apo2L/TRAIL and NO-Cbl+Apo2L/TRAIL. Apoptotic cells were detected by TUNEL (terminal deoxynucleotidyltransferase-mediated dUTP-biotin nick end-labeling) staining using a commercially available kit (APO-BRDU kit, BD-Pharmingen, San Diego, Calif.). Cells were processed according to the manufacturer's recommended protocol. The percentage of FITC-positive cells was analyzed by fluorescent activated cell scanning (FACS, Becton Dickinson, Facsvantage, San Diego, Calif.).
# Cell line A375 has a defect in endogenous TRAIL gene induction therefore, additive cellular responses from exogenous TRAIL/Apo2L were avoided. TUNEL assays of A375 cells treated in vitro with NO-Cbl, Apo2L/TRAIL, or the combination were performed. FIG. 3 illustrates a TUNEL apoptosis assay in accordance with the present invention. A375 cells were treated with NO-Cbl, Apo-2L/TRAIL, and the combination. […] The highest levels of apoptosis were observed when cells were pre-treated with NO-Cbl followed by Apo2L/TRAIL treatment. Treatment for 36 h with NO-Cbl (100 μM) or Apo2L/TRAIL (100 ng/ml) induced 6.2% and 5.4% TUNEL-positive cells, respectively.
# [8] = system: A375 melanoma xenografts; experiment: Growth of subcutaneous A375 xenografts in nude mice; assay type: in vivo
# Text: In vivo experiments. Please see FIG. 2. The Institutional Animal Care and Use Committee at the Cleveland Clinic Foundation approved all procedures for animal experimentation. Five week-old NCR male athymic nude homozygous (nu/nu) mice (Taconic, Germantown, N.Y.) were inoculated with A375 tumors. Each experimental group contained 4 mice, each mouse bearing two tumors, on opposite flanks. There were four experimental groups (untreated, single agents, and the combination). Cultured tumor cells (4×10^6) were inoculated into flanks in the mid-axillary line. NO-Cbl was given twice daily (50 mg/kg s.c.) and recombinant trimeric Apo2L/TRAIL (50 mg/kg s.c.) was administered every other day, starting on day 2. Tumor volume was measured three times a week using the formula for a prolate spheroid: (4/3) πab^2 where 2a=major axis, 2b=minor axis. Formalin-fixed sections were processed by the Cleveland Clinic Histology Core. Sections were stained with hematoxylin and eosin and evaluated for pathologic changes in a blinded fashion.
# Anti-tumor effects of NO-Cbl, Apo2L/TRAIL, and the combination in vivo. To test drug activity in vivo, subcutaneous A375 xenografts were inoculated in nude mice. FIG. 2. illustrates the effect of NO-Cbl, Apo2L/TRAIL and the combination on the growth of A375 melanoma xenografts. NCR male athymic nude (nulnu) mice (n=4 per group) were injected subcutaneously with 4×10^6 A375 cells. Drug treatments began on day two (2) after injection of tumor cells. NO-Cbl was administered twice daily for the duration of the study. Apo2L/TRAIL was administered every other day. The control mice received phosphate buffered saline. The tumor volume was measured three times per week. Data points represent the mean tumor volume (in cubic mm)±SEM. Daily drug treatments began on day 2 following implantation, at which time tumors were both visible and palpable. Untreated control tumors grew unimpeded. After 25 days, the tumors from mice treated with NO-Cbl were 67.4% smaller than the control tumors (p≦0.0002) and tumors from mice treated with Apo2L/TRAIL were 89.4% smaller than the control tumors (p≦0.00001). The tumors from mice treated with the combination of NO-Cbl and Apo2L/TRAIL were 95.7% smaller than the control tumors (p≦0.000005).
Molecule,NF-κB signaling [1],NF-κB DNA binding activity induced by Apo2L/TRAIL [2],IκBα phosphorylation induced by Apo2L/TRAIL [3],antiproliferative effect on normal cells [4],antiproliferative effect on normal cells [5],antiproliferative effect on normal cells [6],TUNEL-positive cells [7],"tumor regression ([8]; A375 xenografts, nude mice)","tumors smaller than the control tumors ([8]; after 25 days, NO-Cbl 50 mg/kg s.c. twice daily, Apo2L/TRAIL 50 mg/kg s.c. every other day, from day 2)"
"CC(=O)NC(C(=O)O)C(C)(C)SN=O (racemic) [SNAP, S-nitroso-N-acetyl-D,L-penicillamine, reference compound]",inhibit,inhibited,inhibited,,,,,,
B1,,,,completely resistant,completely resistant,completely resistant,5.4%,Tumor regression was observed,89.4%
